B1: ROR2-27 full length human IgG1 antibody (antibody, V domains shown)
VH: QVQLVESGAEVKKPGESLKISCKASGYSFSNYWIGWVRQMPGKGLEWMGIIYPDDSDTRYSPSFQGQVTISADKSISTAYLQWYSLKVADTAKYYCVRPRGAFDIWGQGTTVTVSS
VL: QSVLTQPPSVSGAPGQRVTISCTGSSSNIGAGHAVHWYQQLPGTAPKLLIYDNANRPSGVPDRFSGSQSGTSASLAITGLQTGDEADYYCGTWDDSPSAYVFGTGTKVTVLG
notes: also called clone #27; clone #027 IgG1
B2: ROR2-90 full length human IgG1 antibody (antibody, V domains shown)
VH: EVQLVESGPGLVKPSQTLSLTCTVSGGSISSGGYYWSWIRQHPGKGLEWIGYIYYSGSTYYNPSLKSRVTISVDTSKNQFSLKLSSVTAADTAMYYCARGGLYWTYSQDVWGQGTLVTVSS
VL: QPVLTQPPSASGTPGQRVTISCSGSSSNIGSDYVSWYQQLPGTAPKLLIYRNDQRPSGVPDRFSGSKSGTSASLAISGLRSEDEADYYCVAWDDSLSGYVFGSGTKVTVLG
notes: also called clone #90; antibody #90

Legend:
[1] = biological target: T1, human ROR2 expressed on the cell surface (human, UniProt Q01974 34-943); test: flow cytometry, H345 cells (SCLC); design: unit not given here
T1 construct: Endogenous ROR2 of human tumour cell lines; also called cell surface ROR2; ROR2 on tumour cell lines
T1 sequence (Q01974 34-943 limits assumed): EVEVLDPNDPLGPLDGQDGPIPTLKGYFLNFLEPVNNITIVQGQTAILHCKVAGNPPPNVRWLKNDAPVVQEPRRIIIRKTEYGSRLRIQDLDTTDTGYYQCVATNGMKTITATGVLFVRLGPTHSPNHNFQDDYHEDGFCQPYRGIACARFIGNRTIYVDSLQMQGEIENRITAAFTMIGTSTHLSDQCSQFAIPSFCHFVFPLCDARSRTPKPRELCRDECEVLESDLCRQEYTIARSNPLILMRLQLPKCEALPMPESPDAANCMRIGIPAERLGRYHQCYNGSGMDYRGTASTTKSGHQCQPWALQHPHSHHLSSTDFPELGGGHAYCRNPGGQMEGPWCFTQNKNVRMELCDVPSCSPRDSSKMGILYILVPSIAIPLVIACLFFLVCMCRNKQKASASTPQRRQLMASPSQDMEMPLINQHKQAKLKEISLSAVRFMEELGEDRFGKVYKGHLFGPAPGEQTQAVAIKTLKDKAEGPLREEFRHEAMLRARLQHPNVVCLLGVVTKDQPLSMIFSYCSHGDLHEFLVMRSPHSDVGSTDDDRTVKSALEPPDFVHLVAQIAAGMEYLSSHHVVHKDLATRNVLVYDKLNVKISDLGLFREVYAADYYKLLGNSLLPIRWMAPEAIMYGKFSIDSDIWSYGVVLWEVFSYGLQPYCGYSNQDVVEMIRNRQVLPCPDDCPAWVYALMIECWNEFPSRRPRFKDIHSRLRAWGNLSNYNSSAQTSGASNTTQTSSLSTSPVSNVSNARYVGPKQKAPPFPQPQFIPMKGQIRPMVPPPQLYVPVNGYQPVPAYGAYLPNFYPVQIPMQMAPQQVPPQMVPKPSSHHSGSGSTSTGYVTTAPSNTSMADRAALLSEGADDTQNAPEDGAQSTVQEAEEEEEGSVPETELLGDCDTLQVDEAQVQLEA
Experimental: (§1) Human tumour cell lines were authenticated using short tandem repeat (STR) analysis. They were cultured in RPMI1640 (Cellgro) supplemented with 10% fetal bovine serum (FBS, Life Technologies) at 37° C. in a 5% CO₂ humidified incubator. They were harvested, washed in PBS and reacted with ROR2-IgG at 1 ug/10⁶ tumour cells on ice for an hour. #901-IgG was used as a negative control at the same dose. After washing, a secondary PE-conjugated goat anti-human IgG, Fcγ fragment specific (1:100, Jackson ImmunoResearch) was added for another 30 min incubation. Staining was analyzed on a FACSCalibur (BD Biosciences). ROR2 (full length) antibody binding towards multiple cancer cell lines were compared with Rituxan and Herceptin antibodies. The cancer cell lines were derived from breast cancer, colorectal cancer, mesothelioma, hepatocellular carcinoma, ovarian cancer, osteosarcoma, neuroblastoma, etc. ROR2 #90 antibody could recognize most of the tumour cells tested, and in some cases, the binding intensity was higher than Herceptin (see Tables 8 to 10).

[2] = biological target: T1, human ROR2 expressed on the cell surface; test: flow cytometry, HEP G2 cells (HCC); design: unit not given here
Experimental: as §1

[3] = biological target: T1, human ROR2 expressed on the cell surface; test: flow cytometry, COLO 205 cells (CRC); design: unit not given here
Experimental: as §1

[4] = biological target: T1, human ROR2 expressed on the cell surface; test: flow cytometry, TC32 cells (EW/PNET); design: unit not given here
Experimental: as §1

[5] = biological target: T1, human ROR2 expressed on the cell surface; test: flow cytometry, TC71 cells (EW/PNET); design: unit not given here
Experimental: as §1

[6] = biological target: T1, human ROR2 expressed on the cell surface; test: flow cytometry, OCM1 cells (melanoma); design: unit not given here
Experimental: as §1

[7] = biological target: T1, human ROR2 expressed on the cell surface; test: flow cytometry, MCF7 cells (breast CA); design: unit not given here
Experimental: as §1

[8] = biological target: T1, human ROR2 expressed on the cell surface; test: flow cytometry, CHP100 cells (EW/PNET); design: unit not given here
Experimental: as §1

[9] = biological target: T1, human ROR2 expressed on the cell surface; test: flow cytometry, HTB63 cells (melanoma); design: unit not given here
Experimental: as §1

[10] = biological target: T1, human ROR2 expressed on the cell surface; test: flow cytometry, HTB27 cells (breast CA); design: unit not given here
Experimental: as §1

[11] = biological target: T1, human ROR2 expressed on the cell surface; test: flow cytometry, HTB37-Caco2 cells (CRC); design: unit not given here
Experimental: as §1

[12] = biological target: T1, human ROR2 expressed on the cell surface; test: flow cytometry, SKOV3 cells (ovarian CA); design: unit not given here
Experimental: as §1

[13] = biological target: T1, human ROR2 expressed on the cell surface; test: flow cytometry, SKMEL-5 cells (melanoma); design: unit not given here
Experimental: as §1

[14] = biological target: T1, human ROR2 expressed on the cell surface; test: flow cytometry, SKMEL28 cells (melanoma); design: reference not given here
Experimental: as §1

[15] = biological target: T1, human ROR2 expressed on the cell surface; test: flow cytometry, OVCAR3 cells (ovarian CA); design: unit not given here
Experimental: as §1

[16] = biological target: T1, human ROR2 expressed on the cell surface; test: flow cytometry, NB5 cells (neuroblastoma); design: unit not given here
Experimental: as §1

[17] = biological target: T1, human ROR2 expressed on the cell surface; test: flow cytometry, MCF7-Luc cells (breast CA); design: unit not given here
Experimental: as §1

[18] = biological target: T1, human ROR2 expressed on the cell surface; test: flow cytometry, RG187 cells (osteosarcoma); design: unit not given here
Experimental: as §1

[19] = biological target: T1, human ROR2 expressed on the cell surface; test: flow cytometry, NMB7 cells (neuroblastoma); design: unit not given here
Experimental: as §1

[20] = biological target: T1, human ROR2 expressed on the cell surface; test: flow cytometry, IMR32 cells (neuroblastoma); design: unit not given here
Experimental: as §1

[21] = biological target: T1, human ROR2 expressed on the cell surface; test: flow cytometry, SKNJB cells (neuroblastoma); design: unit not given here
Experimental: as §1

[22] = biological target: T1, human ROR2 expressed on the cell surface; test: flow cytometry, SKNSH cells (neuroblastoma); design: unit not given here
Experimental: as §1

[23] = biological target: T1, human ROR2 expressed on the cell surface; test: flow cytometry, CRL1427 cells (osteosarcoma); design: unit not given here
Experimental: as §1

[24] = biological target: T1, human ROR2 expressed on the cell surface; test: flow cytometry, BE(2)S cells (neuroblastoma); design: unit not given here
Experimental: as §1

[25] = biological target: T1, human ROR2 expressed on the cell surface; test: flow cytometry, OUMS 27 cells (chondrosarcoma); design: unit not given here
Experimental: as §1

[26] = biological target: T1, human ROR2 expressed on the cell surface; test: flow cytometry, HTB26 (MDA-MB-231) cells (breast CA); design: unit not given here
Experimental: as §1

[27] = biological target: T2, human ROR2 extracellular domain (ROR2 ECD recombinant protein) (human, UniProt Q01974 34-403); test: kinetic binding analysis, full length IgG1 on human ROR2-ECD
T2 construct: also called human ROR2-ECD; hROR2-ECD
T2 sequence (Q01974 34-403): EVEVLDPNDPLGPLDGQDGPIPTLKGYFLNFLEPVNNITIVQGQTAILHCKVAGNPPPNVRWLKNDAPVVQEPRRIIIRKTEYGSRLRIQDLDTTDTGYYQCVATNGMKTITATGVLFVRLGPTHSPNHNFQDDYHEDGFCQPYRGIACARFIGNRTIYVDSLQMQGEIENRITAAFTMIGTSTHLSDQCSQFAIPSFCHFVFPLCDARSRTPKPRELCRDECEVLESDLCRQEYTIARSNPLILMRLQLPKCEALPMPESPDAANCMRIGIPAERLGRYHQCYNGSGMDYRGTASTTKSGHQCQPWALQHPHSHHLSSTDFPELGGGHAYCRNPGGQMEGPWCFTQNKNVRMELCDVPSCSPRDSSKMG

| Binder | binding intensity [1] | binding intensity [2] | binding intensity [3] | binding intensity [4] | binding intensity [5] | binding intensity [6] | binding intensity [7] | binding intensity [8] | binding intensity [9] | binding intensity [10] | binding intensity [11] | binding intensity [12] | binding intensity [13] | binding intensity [14] | binding intensity [15] | binding intensity [16] | binding intensity [17] | binding intensity [18] | binding intensity [19] | binding intensity [20] | other results |
| --- | --- | --- | --- | --- | --- | --- | --- | --- | --- | --- | --- | --- | --- | --- | --- | --- | --- | --- | --- | --- | --- |
| B1 | 26 | 11 | 7 | 20 | 21 | 6 | 27 | 18 | 8 | 11 | 13 | 36 | 2 | 8 | 7 | 20 | 74 | 19 | 23 | 16 | binding intensity [21]: 141; binding intensity [22]: 8; binding intensity [23]: 11; binding intensity [24]: 21; binding intensity [25]: 48; binding intensity [26]: 7; Kd [27]: 0.715 nM; koff [27]: 0.000608 s⁻¹; kon [27]: 851000 M⁻¹ s⁻¹ |
| B2 | 48 | 49 | 44 | 70 | 68 | 18 | 115 | 57 | 27 | 125 | 91 | 246 | 8 | 26 | 48 | 47 | 190 | 79 | 47 | 51 | binding intensity [21]: 254; binding intensity [22]: 105; binding intensity [23]: 45; binding intensity [24]: 40; binding intensity [25]: 78; binding intensity [26]: 19; Kd [27]: 0.163 nM; koff [27]: 0.000167 s⁻¹; kon [27]: 1.02e+06 M⁻¹ s⁻¹ |
